Test results reported in the supplement of paper PMC10266784.

B1: library; numbered along this chain (parent)
chain: MAAAAAAAAEQQSSNGPVKKSMREKAVERRSVNKEHNSNFKAGYIPIDEDRLHKTGLRGRKGNLAICVIILLFILAVINLIITLVIWAVIRIGPNGCDSMEFHESGLLRFKQVSDMGVIHPLYKSTVGGRRNENLVITGNNQPIVFQQGTTKLSVENNKTSITSDIGMQFFDPRTQNILFSTDYETHEFHLPSGVKSLNVQKASTERITSNATSDLNIKVDGRAIVRGNEGVFIMGKTIEFHMGGNMELKAENSIILNGSVMVSTTRLPSSSSGDQLGSGDWVRYKLCMCADGTLFKVQVTSQNMGCQISDNPCGNTH

Variants of: B1
Experiment: SGCB cell-surface expression functional score (HA stain, bin4 vs bin1, normalised to synonymous) (log10 ratio); higher = more cell-surface SGCB (functional)
Protocol: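 Deep mutational scan of full-length human SGCB (YFP-SGCB-HA, NNN codon sublibraries A-F) delivered by lentivirus at low MOI into ADG-HEK293 cells stably expressing SGCA, SGCD and SGCG. YFP-positive cells were stained for surface HA on unpermeabilized cells and FACS-sorted into bins. The functional score is log10(frequency in high bin 4 / frequency in low bin 1), normalised per chunk so that synonymous variants have mean 0 and SD 0.5. Scores are the median over codons and over duplicate biological replicates; scores below -0.5 are called non-functional. Scale: negative means deleterious.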

| Variant | SGCB cell-surface expression functional score (log10) |
| --- | --- |
| MAAAAAAAAEQQSSNGPVKKSMREKAVERRSVNKEHNANFKAGYIPIDEDRLHKTGLRGRKGNLAICVIILLFILAVINLIITLVIWAVIRIGPNGCDSMEFHESGLLRFKQVSDMGVIHPLYKSTVGGRRNENLVITGNNQPIVFQQGTTKLSVENNKTSITSDIGMQFFDPRTQNILFSTDYETHEFHLPSGVKSLNVQKASTERITSNATSDLNIKVDGRAIVRGNEGVFIMGKTIEFHMGGNMELKAENSIILNGSVMVSTTRLPSSSSGDQLGSGDWVRYKLCMCADGTLFKVQVTSQNMGCQISDNPCGNTH [S38A] | -0.36 |
| MAAAAAAAAEQQSSNGPVKKSMREKAVERRSVNKEHNCNFKAGYIPIDEDRLHKTGLRGRKGNLAICVIILLFILAVINLIITLVIWAVIRIGPNGCDSMEFHESGLLRFKQVSDMGVIHPLYKSTVGGRRNENLVITGNNQPIVFQQGTTKLSVENNKTSITSDIGMQFFDPRTQNILFSTDYETHEFHLPSGVKSLNVQKASTERITSNATSDLNIKVDGRAIVRGNEGVFIMGKTIEFHMGGNMELKAENSIILNGSVMVSTTRLPSSSSGDQLGSGDWVRYKLCMCADGTLFKVQVTSQNMGCQISDNPCGNTH [S38C] | -0.16 |
| MAAAAAAAAEQQSSNGPVKKSMREKAVERRSVNKEHNDNFKAGYIPIDEDRLHKTGLRGRKGNLAICVIILLFILAVINLIITLVIWAVIRIGPNGCDSMEFHESGLLRFKQVSDMGVIHPLYKSTVGGRRNENLVITGNNQPIVFQQGTTKLSVENNKTSITSDIGMQFFDPRTQNILFSTDYETHEFHLPSGVKSLNVQKASTERITSNATSDLNIKVDGRAIVRGNEGVFIMGKTIEFHMGGNMELKAENSIILNGSVMVSTTRLPSSSSGDQLGSGDWVRYKLCMCADGTLFKVQVTSQNMGCQISDNPCGNTH [S38D] | 0.3 |
| MAAAAAAAAEQQSSNGPVKKSMREKAVERRSVNKEHFSNFKAGYIPIDEDRLHKTGLRGRKGNLAICVIILLFILAVINLIITLVIWAVIRIGPNGCDSMEFHESGLLRFKQVSDMGVIHPLYKSTVGGRRNENLVITGNNQPIVFQQGTTKLSVENNKTSITSDIGMQFFDPRTQNILFSTDYETHEFHLPSGVKSLNVQKASTERITSNATSDLNIKVDGRAIVRGNEGVFIMGKTIEFHMGGNMELKAENSIILNGSVMVSTTRLPSSSSGDQLGSGDWVRYKLCMCADGTLFKVQVTSQNMGCQISDNPCGNTH [N37F] | -0.14 |
| MAAAAAAAAEQQSSNGPVKKSMREKAVERRSVNKEHISNFKAGYIPIDEDRLHKTGLRGRKGNLAICVIILLFILAVINLIITLVIWAVIRIGPNGCDSMEFHESGLLRFKQVSDMGVIHPLYKSTVGGRRNENLVITGNNQPIVFQQGTTKLSVENNKTSITSDIGMQFFDPRTQNILFSTDYETHEFHLPSGVKSLNVQKASTERITSNATSDLNIKVDGRAIVRGNEGVFIMGKTIEFHMGGNMELKAENSIILNGSVMVSTTRLPSSSSGDQLGSGDWVRYKLCMCADGTLFKVQVTSQNMGCQISDNPCGNTH [N37I] | 0.02 |
| MAAAAAAAAEQQSSNGPVKKSMREKAVERRSVNKEHQSNFKAGYIPIDEDRLHKTGLRGRKGNLAICVIILLFILAVINLIITLVIWAVIRIGPNGCDSMEFHESGLLRFKQVSDMGVIHPLYKSTVGGRRNENLVITGNNQPIVFQQGTTKLSVENNKTSITSDIGMQFFDPRTQNILFSTDYETHEFHLPSGVKSLNVQKASTERITSNATSDLNIKVDGRAIVRGNEGVFIMGKTIEFHMGGNMELKAENSIILNGSVMVSTTRLPSSSSGDQLGSGDWVRYKLCMCADGTLFKVQVTSQNMGCQISDNPCGNTH [N37Q] | -0.21 |
| MAAAAAAAAEQQSSNGPVKKSMREKAVERRSVNKEHTSNFKAGYIPIDEDRLHKTGLRGRKGNLAICVIILLFILAVINLIITLVIWAVIRIGPNGCDSMEFHESGLLRFKQVSDMGVIHPLYKSTVGGRRNENLVITGNNQPIVFQQGTTKLSVENNKTSITSDIGMQFFDPRTQNILFSTDYETHEFHLPSGVKSLNVQKASTERITSNATSDLNIKVDGRAIVRGNEGVFIMGKTIEFHMGGNMELKAENSIILNGSVMVSTTRLPSSSSGDQLGSGDWVRYKLCMCADGTLFKVQVTSQNMGCQISDNPCGNTH [N37T] | -0.11 |
| MAAAAAAAAEQQSSNGPVKKSMREKAVERRSVNKEHMSNFKAGYIPIDEDRLHKTGLRGRKGNLAICVIILLFILAVINLIITLVIWAVIRIGPNGCDSMEFHESGLLRFKQVSDMGVIHPLYKSTVGGRRNENLVITGNNQPIVFQQGTTKLSVENNKTSITSDIGMQFFDPRTQNILFSTDYETHEFHLPSGVKSLNVQKASTERITSNATSDLNIKVDGRAIVRGNEGVFIMGKTIEFHMGGNMELKAENSIILNGSVMVSTTRLPSSSSGDQLGSGDWVRYKLCMCADGTLFKVQVTSQNMGCQISDNPCGNTH [N37M] | -0.37 |
| MAAAAAAAAEQQSSNGPVKKSMREKAVERRSVNKEHGSNFKAGYIPIDEDRLHKTGLRGRKGNLAICVIILLFILAVINLIITLVIWAVIRIGPNGCDSMEFHESGLLRFKQVSDMGVIHPLYKSTVGGRRNENLVITGNNQPIVFQQGTTKLSVENNKTSITSDIGMQFFDPRTQNILFSTDYETHEFHLPSGVKSLNVQKASTERITSNATSDLNIKVDGRAIVRGNEGVFIMGKTIEFHMGGNMELKAENSIILNGSVMVSTTRLPSSSSGDQLGSGDWVRYKLCMCADGTLFKVQVTSQNMGCQISDNPCGNTH [N37G] | -0.15 |
